Data on one compound can be found in US7521477B2, “Vitamin C derivatives with peptide, preparation method thereof and composition comprising the same” (Peptron Co., Ltd., priority 2003, dated 2009).

SMILES strings stand for the structures. Peptide text beside a SMILES is read from it. * marks the point of attachment. X1 = O=C(CCC(=O)*)OC[C@H](O)[C@H]1OC(=O)C(O)=C1O

In series [1] the test system is human normal fibroblasts, B16 melanocytes and HaCaT cells. In words: Cytotoxicity, MTT assay. Type of series: cell-based. Conditions: concentration of 5 mM. A general note: Tetrazolium dyes change colour on reduction, which living cells bring about.
The test system of another series is rabbits. In words: Skin irritation test (patch test). It counts as in vivo. Particulars: 0.5 ml of 1% in 0.01M PBS, 24 hrs patch, read 24 hrs and 72 hrs. The protocol: 0.5 ml of 1% compound II-4 in 0.01M PBS was applied to each hairless area (2.5 cm×2.5 cm) of the back of rabbits for 24 hrs once. Each of the treated sites was covered with a single sheet of gauge (10 cm×10 cm) to prevent loss of the test compound by contact and then an impermeable and unreactive solid film to prevent evaporation of the test compound. Then, the treated site was bound with an elastic bandage while not disturbing behavior of the rabbits, and the bandage was then held in place by a paper tape. 24 hrs and 72 hrs after application of the test compound, skin irritation was investigated.

In a further series the test system is eyes of rabbits. In words: Ocular irritation test. Conditions: 0.1 ml of 1% in 0.01M PBS. It counts as in vivo, New Zealand White Rabbit. The protocol:
The compound II-4 was determined whether inducing ocular irritation or evaluated for the degree of ocular irritation. The compound II-4 was applied to the eyes of rabbits (New Zealand White Rabbit, NZW).
0.1 ml of 1% compound II-4 in 0.01M PBS was applied to the eyes of the rabbits. That is, the test compound was applied to one eye (right) of each of nine rabbits in an amount of 0.1 ml/head according to the standard criteria for toxicity test of pharmaceutical and medicinal substances (a publication by Korean Food & Drug Administration, Vol. 1999-61, Dec. 22, 1999). After application of the test compound, the treated eyes of the rabbits were maintained at a state of being closed for about one second to prevent loss of the applied test compound. Then, the degree of damage in the cornea, the iris and the conjunctiva was investigated.

Series [2] has as its system male Hartley guinea pigs. Description: Phototoxicity test. Conditions: guinea pig, in vivo. Here is the method:
Each of the test samples was applied to the skin of guinea pigs, and the guinea pigs were exposed to ultraviolet A (UVA) radiation. Then, potency to induce phototoxicity was evaluated. Induction of phototoxicity, which is an abnormal response of the skin to a photo-stimulus such as ultraviolet or visible light, occurs non-immunologically by a chemical. Unlike the allergic response, the degree of phototoxicity can be expected by sufficient intensity of radiation and drugs.
CP and 8-MOP were prepared at a final concentration of 10% in DMSO and then diluted to 1%. Each of guinea pigs was fixed on a fixing plate, and the skin of the guinea pig was covered with 50 μl of each of the test samples. Then, the right area of the skin was not exposed to UV light, and the left area of the skin was exposed to UVA light (320 to 380 nm) of 15 J/cm^2, which was irradiated in a distance of about 10 cm for about 2 hrs. 24 hrs, 48 hr and 72 hrs after UVA irradiation, photosensitization in the treatment group was evaluated in comparison with that in the positive control groups.

Series [3] in a line: Toxicity test upon single oral administration. It counts as in vivo. Particulars: both sexes, mouse, in vivo, 2000 mg/kg; single oral administration, male and female mice; read-out: Lethal dose. The protocol:
(§1) The compound II-4 was evaluated for safety upon single oral administration. The compound II-4 was orally administered to five male and five female mice (SamtakoBioKorea Co. Ltd.) in a single dose of 2,000 mg/10 ml/kg. As a control, five male and five female mice were orally administered once with 0.1 M PBS of 10 ml/kg. During 14 days after administration, death, general pathogenic symptoms and change in body weight were not observed.

The test system of the next series is mice. In words: Toxicity test upon single oral administration. It counts as in vivo. Particulars: single oral dose of 2,000 mg/10 ml/kg, 14 days, male and female mice. The protocol: as §1
Series [4] relates to male Hartley guinea pigs. In words: Photosensitization test (Adjuvant & Strip method). It counts as in vivo. Particulars: guinea pig, in vivo. Here is the method:
A photosensitization test for the compound II-4 was carried out according to an Adjuvant & Strip method using male Hartley guinea pigs. After four sites to be sensitized were selected at the cervical and dorsal skin of the guinea pigs, an emulsion of WFI and FCA were intradermally injected to each of the selected sites. The sensitized sites were stripped only in a degree of inducing weak erythema, and covered with 0.01 PBS (excipient group), the compound II-4 (test group) and CP (chlorpromazine; positive control group) in a non-occlusive manner. After two hours, long wave-length UV light of about 10 J/cm^2 was irradiated to the test substance-applied sites. 24 hrs, 48 hrs and 72 hrs after UV irradiation, signs of photosensitization were investigated.

The test system of series [5] is male Hartley guinea pigs. Particulars: guinea pig, in vivo.
Description: Two weeks after secondary sensitization, topical challenge was carried out, as follows. […] Skin reading was made after removal of the patches.

In the case of `C[C@@H](O)[C@H](NC(=O)[C@H](CCCCN)NC(=O)CCC(=O)OC[C@H](O)[C@H]1OC(=O)C(O)=C1O)C(=O)N[C@H](C(=O)N[C@@H](CCCCN)C(=O)N[C@@H](CO)C(=O)O)[C@@H](C)O` [II-4, 6-(succinyl-lysyl-threonyl-threonyl-lysyl-serine(SEQ ID NO:1))ascorbic acid] (X1-KTTKS-OH), the Cytotoxicity result in series [1] is reported as “did not showed cytotoxicity”. Besides, in the series on rabbits, the Skin irritation result is “very safe upon application to the skin”. Besides, the “Index of Acute Ocular Irritation (I.A.O.I)” value in the series with eyes of rabbits is given as “zero”. Moreover, in the series with eyes of rabbits (day 1 to day 7), the “Conjunctiva redness and chemosis” value was “no sign of conjunctiva redness and chemosis was observed”. In the series on male Hartley guinea pigs [2], the Evaluation result was “Practically non-irritating”, the Mean score came to 0, the “Phototoxicity (conclusion)” value is on record as “rarely have phototoxicity” and the “Total score/Site No” value is on record as 0 + 0/10. In the series on male Hartley guinea pigs [2], the “Total score/Site No.” value is given as 0 + 0/10. In addition, the LD50 at 336 h in series [3] is greater than 2000 mg/kg. Besides, the “Death, general pathogenic symptoms and change in body weight” value in the series on mice was “not observed”. In the series with male Hartley guinea pigs [4], the Mean score result is “(0 + 0)/5”, the Photosensitization index worked out at 0, the “Photosensitizer (conclusion)” value is listed as “not a photosensitizer” and the Stimulation index was determined as 0. In addition, in the series with male Hartley guinea pigs [5], the Sensitization class result was “I”, the “Sensitization rate (%)” value was found to be 0%, the “Sensitization score (total hrs)” value stood at 0 and the “Skin reaction in induced regions” value is listed as “no skin reaction was observed”. In addition, in the series with male Hartley guinea pigs [5], the sensitization class result is recorded as “I” and the skin irritation rate was 0%.
